Data taken from patent publication EP0811064B1.
Several values for one entry are separate records, joined by “and”; a condition that tells them apart may be missing. Equal values may be shown once.

target: full length human mpl receptor expressed on 32D-mpl cells (human) (UniProt P40238); assay: cell-based or functional assay

Substance | In Vitro Activity (units/ml) | Specific Activity (units/ ng) [units/ng]
mpl ligand analog N21 [Asn^54, Ser^56] mpl ligand 1-174 | 4380 | 146
mpl ligand analog N40 (N4+N10+N36+N38 changes in mpl ligand 1-199) | 19700 | 147
mpl ligand analog N26 [Asn^118, Ser^120] mpl ligand 1-174 | 96 | 106
mpl ligand analog N25 [Asn^81, Thr^83] mpl ligand 1-174 | 123 | 559
mpl ligand analog N15 [Asn^30, Thr^32, Asn^120, Thr^122] mpl ligand 1-174 | 7000 | 156
mpl ligand 1-183 (N16) | 9280 | –
mpl ligand analog N29 [Asn^30, Ser^32, Asn^120, Ser^122] mpl ligand 1-174 | 1630 | 108
mpl ligand analog N39 [Asn^30, Thr^32, Asn^120, Thr^122, Asn^55, Thr^57, Thr^163, Asn^164, Thr^166] mpl ligand 1-174 | 17700 | 139
mpl ligand analog N34 [Asn^30, Thr^32, Asn^55'(i), Thr^57, Thr^163, Asn^164] mpl ligand 1-174 | 13500 | 120
mpl ligand 1-199 (N31) | 19000 | 122
mpl ligand analog N18 [Asn^23, Ser^25] mpl ligand 1-174 | 5 | 2.5
mpl ligand analog N24 [Asn^57, Ser^59] mpl ligand 1-174 | 458 | 86
mpl ligand analog N38 [Thr^163, Asn^164, Thr^166] mpl ligand 1-174 | 3900 | 156
mpl ligand analog N30 [Thr^163, Asn^164] mpl ligand 1-174 | 15600 | 122
mpl ligand analog N37 [Asn^56] mpl ligand 1-174 | 4500 | 141
mpl ligand analog N27 [Asn^119, Ser^121] mpl ligand 1-174 | 338 | 75

Continued, values first:

In Vitro Activity (units/ml) | Specific Activity (units/ ng) [units/ng] | Substance
5810 | 121 | mpl ligand analog N36 [Asn^55, Thr^57] mpl ligand 1-174
1060 | 96 | mpl ligand analog N23 [Asn^55'(i), Thr^57] mpl ligand 1-174
11 | – | mpl ligand 1-191 (N17)
13100 | 76 | mpl ligand analog N35 (N4+N23+N30 changes in mpl ligand 1-199)
856 | 428 | mpl ligand analog N22 [Asn^52, Thr^54] mpl ligand 1-174
10100 | 129 | mpl ligand analog N33 [Asn^30, Thr^32, Asn^120, Thr^122, Asn^55'(i), Thr^57] mpl ligand 1-174
< 10 | – | mpl ligand analog N20 [Asn^39, Ser^41] mpl ligand 1-174

target: full length human mpl receptor expressed on 32D-mpl cells (human) (UniProt P40238); assay: cell-based or functional assay; remark: another data set of the same source

Substance | In Vitro Activity (units/ml) | Specific Activity (units/ ng) | IN VITRO ACTIVITY U/mg X10E6 [U/mg]
mpl ligand analog N14 [Asn^58, Thr^60] mpl ligand 1-174 | 4850 units/ml | 271 units/ng | –
mpl ligand analog N3 [Asn^25] mpl ligand 1-174 | 636 units/ml | 344 units/ng | –
mpl ligand analog N7 [Asn^82, Ala^83] mpl ligand 1-174 | 2660 units/ml and 3080 units/ml | 443 units/ng and 655 units/ng | –
mpl ligand analog N15 [Asn^30, Thr^32, Asn^120, Thr^122] mpl ligand 1-174 | 6420 units/ml | 247 units/ng | 9.2e+07
Met-Lys-mpl ligand 1-174 (E. coli) | – | – | 1.3e+07
human mpl ligand 1-163 (CHO) | – | – | 8.6e+07
mpl ligand analog N4 [Asn^30, Thr^32] mpl ligand 1-174 | 8830 units/ml | 232 units/ng | 6e+07
mpl ligand analog N13 [Asn^53, Thr^55] mpl ligand 1-174 | 18000 units/ml | 269 units/ng | –

Second part, the substance after the results:

In Vitro Activity (units/ml) | Specific Activity (units/ ng) | IN VITRO ACTIVITY U/mg X10E6 [U/mg] | Substance
< 10 units/ml | < 22 units/ng | – | mpl ligand analog N6 [Asn^86] mpl ligand 1-174
< 10 units/ml | < 8 units/ng | – | mpl ligand analog N11 [Ser^36, Asn^38, Thr^40] mpl ligand 1-174
– | – | 4.1e+07 | human mpl ligand 1-332 (CHO)
< 10 units/ml | < 8 units/ng | – | mpl ligand analog N5 [Asn^38, Thr^40] mpl ligand 1-174
1970 units/ml | 188 units/ng | – | mpl ligand analog N9 [Asn^92] mpl ligand 1-174
5940 units/ml and 9690 units/ml | 291 units/ng and 288 units/ng | – | mpl ligand analog N10 [Asn^120, Thr^122] mpl ligand 1-174
